Reference: PMC4808492
Like-named read-outs stand apart in the source and are kept apart here.

How the values were obtained:
[1] = biological target: cation-independent M6P receptor (CI-MPR), on an affinity column (UniProt P08169); assay: CI-MPR affinity column
[2] = biological target: cation-independent M6P receptor (CI-MPR), on an affinity column (UniProt P08169); assay: CI-MPR affinity column; remark: listed apart in the source

Sequence of UniProt P08169 (P08169 45-2499): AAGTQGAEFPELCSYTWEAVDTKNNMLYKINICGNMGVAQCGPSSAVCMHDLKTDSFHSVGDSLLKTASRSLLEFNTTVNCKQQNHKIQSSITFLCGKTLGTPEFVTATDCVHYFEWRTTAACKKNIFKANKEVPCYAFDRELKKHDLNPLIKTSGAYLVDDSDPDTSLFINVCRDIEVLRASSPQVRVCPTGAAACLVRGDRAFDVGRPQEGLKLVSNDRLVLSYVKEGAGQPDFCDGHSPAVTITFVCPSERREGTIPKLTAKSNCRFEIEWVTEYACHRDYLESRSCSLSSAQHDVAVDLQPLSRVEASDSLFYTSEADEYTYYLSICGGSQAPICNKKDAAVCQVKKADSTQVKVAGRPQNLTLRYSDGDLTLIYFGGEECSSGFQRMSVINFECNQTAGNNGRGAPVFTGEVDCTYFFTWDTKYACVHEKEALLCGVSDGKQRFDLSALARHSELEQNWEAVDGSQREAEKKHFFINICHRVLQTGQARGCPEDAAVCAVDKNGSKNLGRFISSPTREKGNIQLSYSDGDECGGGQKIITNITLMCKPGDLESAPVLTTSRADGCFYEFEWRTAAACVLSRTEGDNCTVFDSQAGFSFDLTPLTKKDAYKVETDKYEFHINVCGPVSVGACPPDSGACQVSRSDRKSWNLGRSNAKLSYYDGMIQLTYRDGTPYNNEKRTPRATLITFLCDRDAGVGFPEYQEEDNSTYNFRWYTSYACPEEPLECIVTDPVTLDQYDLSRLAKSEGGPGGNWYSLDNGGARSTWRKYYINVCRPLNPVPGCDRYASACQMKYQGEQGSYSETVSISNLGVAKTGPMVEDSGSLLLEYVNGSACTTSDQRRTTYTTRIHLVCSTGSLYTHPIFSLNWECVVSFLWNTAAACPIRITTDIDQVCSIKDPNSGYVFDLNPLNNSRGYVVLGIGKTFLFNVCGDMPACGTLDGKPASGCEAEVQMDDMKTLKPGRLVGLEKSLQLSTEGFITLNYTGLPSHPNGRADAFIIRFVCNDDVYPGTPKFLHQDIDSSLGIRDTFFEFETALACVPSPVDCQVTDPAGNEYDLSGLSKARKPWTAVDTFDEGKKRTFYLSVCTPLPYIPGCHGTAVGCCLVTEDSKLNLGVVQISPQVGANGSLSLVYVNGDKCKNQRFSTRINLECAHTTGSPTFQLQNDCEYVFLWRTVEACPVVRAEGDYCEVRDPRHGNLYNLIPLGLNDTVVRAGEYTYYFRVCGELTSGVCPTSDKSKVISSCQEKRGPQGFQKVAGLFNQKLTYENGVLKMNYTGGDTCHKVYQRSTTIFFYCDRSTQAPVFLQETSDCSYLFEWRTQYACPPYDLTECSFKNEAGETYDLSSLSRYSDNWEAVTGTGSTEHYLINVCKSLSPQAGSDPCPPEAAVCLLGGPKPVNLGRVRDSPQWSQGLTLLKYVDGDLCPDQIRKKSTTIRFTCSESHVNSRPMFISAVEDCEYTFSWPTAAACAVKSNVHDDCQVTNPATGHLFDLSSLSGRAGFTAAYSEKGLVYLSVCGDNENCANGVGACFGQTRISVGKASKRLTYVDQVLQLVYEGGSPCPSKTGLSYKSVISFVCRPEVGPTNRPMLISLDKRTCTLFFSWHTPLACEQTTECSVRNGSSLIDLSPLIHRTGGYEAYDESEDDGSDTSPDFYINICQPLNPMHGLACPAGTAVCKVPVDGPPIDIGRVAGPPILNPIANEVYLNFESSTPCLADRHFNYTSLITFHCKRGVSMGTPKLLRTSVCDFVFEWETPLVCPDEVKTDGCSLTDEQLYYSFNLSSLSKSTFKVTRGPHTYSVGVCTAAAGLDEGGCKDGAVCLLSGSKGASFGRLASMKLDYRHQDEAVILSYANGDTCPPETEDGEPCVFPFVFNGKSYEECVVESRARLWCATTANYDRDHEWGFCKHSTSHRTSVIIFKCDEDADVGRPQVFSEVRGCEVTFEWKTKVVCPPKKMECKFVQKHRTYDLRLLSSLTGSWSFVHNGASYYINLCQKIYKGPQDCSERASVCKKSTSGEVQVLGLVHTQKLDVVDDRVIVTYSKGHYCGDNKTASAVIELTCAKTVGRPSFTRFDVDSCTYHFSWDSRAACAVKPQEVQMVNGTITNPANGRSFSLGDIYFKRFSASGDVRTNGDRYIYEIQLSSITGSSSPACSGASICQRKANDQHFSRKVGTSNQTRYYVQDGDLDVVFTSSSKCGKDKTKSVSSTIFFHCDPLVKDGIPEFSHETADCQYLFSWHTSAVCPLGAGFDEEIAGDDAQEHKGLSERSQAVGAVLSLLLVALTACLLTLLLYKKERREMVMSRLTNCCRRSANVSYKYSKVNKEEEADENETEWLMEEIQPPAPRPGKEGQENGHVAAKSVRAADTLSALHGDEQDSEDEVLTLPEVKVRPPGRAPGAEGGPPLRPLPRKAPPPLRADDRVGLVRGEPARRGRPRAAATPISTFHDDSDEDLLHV

| percent of enzyme activity bound to the column [1] | percent of enzyme activity bound to the column [2] | Substance |
| --- | --- | --- |
| 17.2% | – | zebrafish cathepsin K (Ctsk) from MLII (gnptab morphant) embryos (enzyme) |
| 5% | – | zebrafish cathepsin D (Ctsd) from MLII (gnptab morphant) embryos (enzyme) |
| 16% | 24.2% | zebrafish cathepsin D (Ctsd) from WT animals (enzyme) |
| 86% | 93.1% | zebrafish cathepsin K (Ctsk) from WT animals (enzyme) |
